In PMC9599533 one finds stoichiometry N data, which are given here for one substance.

For the test, the target named is α-subunit of the M. tuberculosis open gate 20S core particle (M. tuberculosis) (UniProt P9WHU1). Briefly: cryo-EM structure.

As to “α-subunit of the M. tuberculosis open gate 20S core particle (from UniProt P9WHU1 9-248) (domain or fragment)”, the stoichiometry N – broadly, a count of units in the complex or per binding partner – is 7.
